Values quoted from earlier work as cited in article PMC3463409.

Target: Cys30 (UniProt position 49, FFSFFCPHCYQ)
Conditions: not stated (a thiol pKa implies the reduced form of the active-site cysteine)

For “Thiol:disulfide interchange protein DsbA (Escherichia coli)”, the pKa is given as 3.5.
